The values below come from patent publication US20260043041A1, “HSL PROTEIN, GENE, VECTOR, CELL, COMPOSITION AND USE THEREOF, AND METHOD FOR IMPROVING HERBICIDE RESISTANCE OF CROPS” (CENTRAL CHINA NORMAL UNIVERSITY, priority 2022, published 2026).

Residue numbers refer to the chain shown, from its start. Names and notes keep the numbering of the source.

The subject of series [1] is Cc1ccccc1-n1c(=O)c2c(C)c(C(=O)C3=C(O)CCCC3=O)ccc2n(C)c1=O. The series can be described thus: Enzyme kinetic parameters with HPPD inhibitors as substrate (HPLC). Type of series: biochemical, rice. The note with it: other: pH 7.0, 30° C., about 20 min. The source says:
(§1) High Performance Liquid Chromatography (HPLC) was used to test OsHIS1 wild-type protein (the amino acid sequence of OsHIS1 wild-type is shown as SEQ ID NO 2, and the corresponding nucleotide sequence is shown as SEQ ID NO 21), the enzyme kinetic parameters of OsHSL1 wild-type protein and some OsHSL1 mutant proteins with higher reactivity and HPPD inhibitors, and the specific results are shown in Table 9-Table 12. […] Each sample was replicated three times. • e.

The test system of series [2] is CS(=O)(=O)c1ccc(C(=O)C2C(=O)CCCC2=O)c([N+](=O)[O-])c1. The series is described as above. Type of series: biochemical, rice. To be noted: other: pH 7.0, 30° C., about 20 min.
Description: as §1

Series [3] deals with T1, rice OsHSL1 (SEQ ID NO: 1) mutant OsHSL1_F140H/L204F/F298L/I335A (Oryza sativa, UniProt A0A7G1K9G4, F140H/F298L/I335A/L204F).
T1 construct: isolated enzyme, HPLC assay
T1 sequence (A0A7G1K9G4 entry or part of it F140H/L204F/F298L/I335A): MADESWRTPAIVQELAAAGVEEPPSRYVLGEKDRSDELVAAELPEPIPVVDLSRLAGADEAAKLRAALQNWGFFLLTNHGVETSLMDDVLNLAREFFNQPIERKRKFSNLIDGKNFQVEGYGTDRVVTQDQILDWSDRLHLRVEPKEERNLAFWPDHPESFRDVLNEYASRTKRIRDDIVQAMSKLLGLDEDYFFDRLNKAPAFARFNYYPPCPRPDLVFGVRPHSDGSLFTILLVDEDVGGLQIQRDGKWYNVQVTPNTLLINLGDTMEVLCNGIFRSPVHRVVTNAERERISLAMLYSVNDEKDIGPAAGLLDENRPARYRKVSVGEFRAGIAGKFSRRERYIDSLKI
The series is described as above. It is filed as biochemical. To be noted: compared with OsHSL1 wild type; close to the OsHIS1 wild type.
Description: as §1

For series [4], the system named is Cc1c(C(=O)c2cnn(C)c2O)ccc(S(C)(=O)=O)c1C1=NOCC1. The description is as above. It is filed as biochemical, rice. To be noted: other: pH 7.0, 30° C., about 20 min.
Description: as §1

Series [5] is classed as biochemical. To be noted: for Catalytic efficiency (%) topramezone: substrate topramezone 50 μM, 30° C., 10 h, protein 0.5 mg/mL; for Catalytic efficiency (%) 30 min / Catalytic efficiency (%) 60 min / Catalytic efficiency (%) 120 min / Catalytic efficiency (%) 300 min / Catalytic efficiency (%) 600 min: topramezone degradation; for Catalytic efficiency (%) 30 min: reaction time 30 min; for Catalytic efficiency (%) 60 min: reaction time 60 min; for Catalytic efficiency (%) 120 min: reaction time 120 min; for Catalytic efficiency (%) 300 min: reaction time 300 min; for Catalytic efficiency (%) 600 min: reaction time 600 min. Here is the method: (§2) Each sample was replicated three times. • e.
(§3) Control: refers to the addition of inhibitors to the reaction system, but not the addition of enzymes, which is regarded as the substrate surplus when the inhibitor is not catalyzed.
(§4) Sample: in the enzyme reaction system, the same volume and the same concentration (50 μM) of the inhibitor was added, and the catalytic efficiency of the enzyme to the inhibitor was observed.
(§5) Catalytic efficiency=(1−(peak area of substrate in sample)/(peak area of substrate in control))×100%.

Substrate in series [6]: CS(=O)(=O)c1ccc(C(=O)C2C(=O)CCCC2=O)c([N+](=O)[O-])c1
Kind of series: Enzyme kinetic parameters with HPPD inhibitors as substrate (HPLC). It is filed as biochemical, rice. The note with it: other: pH 7.0, 30° C., about 20 min.
Description: as §1
This is another data set of the same source.

A short description of series [7]: Catalytic activity of HSL proteins on HPPD inhibitors (HPLC, substrate consumption). The note with it: 30° C., 10 h, protein 0.5 mg/mL; for Catalytic efficiency (%) Compound A: substrate Compound A 50 μM; for Catalytic efficiency (%) benzobicyclon technical: substrate benzobicyclon technical 50 μM; for Catalytic efficiency (%) Mesotrione: substrate mesotrione 50 μM; for Catalytic efficiency (%) methyl-benquitrione: substrate methyl-benquitrione 50 μM; for Catalytic efficiency (%) pyraquinate technical: substrate pyraquinate technical 50 μM; for Catalytic efficiency (%) tefuryltrione: substrate tefuryltrione 50 μM; for Catalytic efficiency (%) tembotrione: substrate tembotrione 50 μM. It is filed as biochemical. Here is the method:
as §2, §3, §4, §5

The nature of series [8]: Enzyme kinetic parameter study (HPLC, Michaelis-Menten fit). It is filed as biochemical.
Description: as §1

Substrate in series [9]: Cc1ccccc1-n1c(=O)c2c(C)c(C(=O)C3=C(O)CCCC3=O)ccc2n(C)c1=O
The series can be described thus: Enzyme kinetic parameters with HPPD inhibitors as substrate (HPLC). Type of series: biochemical, rice. To be noted: other: pH 7.0, 30° C., about 20 min.
Description: as §1
The source holds these as a separate data set.

“rice OsHSL1 (SEQ ID NO: 1) mutant OsHSL1_F140H/L204F/F298L/I335A (Oryza sativa Japonica Group; F140H/F298L/I335A/L204F)”: in series [1], the Michaelis-Menten constant (Km) was determined as 22.6001 µM and the kcat stood at 0.0106 s⁻¹. Also, in series [2], the Km stood at 23.4659 µM and the kcat came out at 0.0083 s⁻¹.

Take `CS(=O)(=O)c1ccc(C(=O)C2C(=O)CCCC2=O)c([N+](=O)[O-])c1` [mesotrione]: the “affinity and catalytic efficiency (in words)” value in [3] is “better affinity and catalytic efficiency”.

“rice OsHSL1 (SEQ ID NO: 1) mutant OsHSL1_I335F (Oryza sativa Japonica Group; I335F)”: in series [4], the Km was found to be 48.4211 µM and the kcat was determined as 0.0057 s⁻¹.

Consider “rice OsHSL1 wild type, SEQ ID NO: 1 (Oryza sativa Japonica Group)”, for which, in series [4], the Km was found to be 44.0732 µM and the kcat was found to be 0.0011 s⁻¹.

As to `CS(=O)(=O)c1ccc(C(=O)C2=C(Sc3ccccc3)C3CCC(C3)C2=O)c(Cl)c1` (stereo not shown) [benzobicyclon technical, benzobicyclon], the “affinity and catalytic efficiency (in words)” value in [3] is “better affinity and catalytic efficiency”.

B1: rice OsHSL1 wild type, SEQ ID NO: 1 (Oryza sativa Japonica Group) (protein)
chain: MADESWRTPAIVQELAAAGVEEPPSRYVLGEKDRSDELVAAELPEPIPVVDLSRLAGADEAAKLRAALQNWGFFLLTNHGVETSLMDDVLNLAREFFNQPIERKRKFSNLIDGKNFQVEGYGTDRVVTQDQILDWSDRLFLRVEPKEERNLAFWPDHPESFRDVLNEYASRTKRIRDDIVQAMSKLLGLDEDYFFDRLNKAPALARFNYYPPCPRPDLVFGVRPHSDGSLFTILLVDEDVGGLQIQRDGKWYNVQVTPNTLLINLGDTMEVLCNGIFRSPVHRVVTNAERERISLAMFYSVNDEKDIGPAAGLLDENRPARYRKVSVGEFRAGIIGKFSRRERYIDSLKI
notes: isolated enzyme, HPLC substrate-consumption assay with Fe(II), ascorbate and 2-oxoglutarate
In the case of B1, in series [5], the “Catalytic efficiency (%) topramezone” value is reported as 100%, the “Catalytic efficiency (%) 30 min” value stood at 79%, the “Catalytic efficiency (%) 60 min” value amounted to 86% and the “Catalytic efficiency (%) 120 min” value was determined as 93%. In series [5], the “Catalytic efficiency (%) 300 min” value stood at 98% and the “Catalytic efficiency (%) 600 min” value came out at 100%. For the same molecule, in series [6], the Km was 27.6770 µM and the kcat came out at 0.0002 s⁻¹. Besides, in series [7], the “Catalytic efficiency (%) Compound A” value is on record as 0%, the “Catalytic efficiency (%) benzobicyclon technical” value is 46%, the “Catalytic efficiency (%) Mesotrione” value turned out to be 40% and the “Catalytic efficiency (%) methyl-benquitrione” value is recorded as 0%. In series [7], the “Catalytic efficiency (%) pyraquinate technical” value is given as 17%, the “Catalytic efficiency (%) tefuryltrione” value came out at 100% and the “Catalytic efficiency (%) tembotrione” value is on record as 89%.

B2: OsHSL1_F140H/L204F/I335F: SEQ ID NO.1 with F140 to histidine, L204 to phenylalanine, I335 to phenylalanine (protein)
chain: B1 chain with F140H, L204F, I335F
Take B2: in [5], the “Catalytic efficiency (%) topramezone” value is recorded as 40%. Besides, in series [7], the “Catalytic efficiency (%) Compound A” value stood at 35%, the “Catalytic efficiency (%) benzobicyclon technical” value is given as 100%, the “Catalytic efficiency (%) Mesotrione” value came out at 89% and the “Catalytic efficiency (%) methyl-benquitrione” value is reported as 23%. Moreover, in [7], the “Catalytic efficiency (%) pyraquinate technical” value was found to be 2%, the “Catalytic efficiency (%) tefuryltrione” value turned out to be 100% and the “Catalytic efficiency (%) tembotrione” value turned out to be 36%.

B3: OsHSL1_I335F: SEQ ID NO.1 with the isoleucine at site 335 mutated to phenylalanine (protein, listed as Oryza sativa)
chain: B1 chain with I335F
For the molecule B3, in [5], the “degradation of topramezone (in words)” value was “can completely degrade topramezone”, the “effect on topramezone degradation versus OsHSL1 wild type (in words)” value is on record as “significantly better effect on topramezone degredation than OsHSL1 wild type”, the “Catalytic efficiency (%) topramezone” value amounted to 100% and the “Catalytic efficiency (%) 30 min” value was determined as 97%. In series [5], the “Catalytic efficiency (%) 60 min” value is listed as 100%, the “Catalytic efficiency (%) 120 min” value turned out to be 100%, the “Catalytic efficiency (%) 300 min” value was 100% and the “Catalytic efficiency (%) 600 min” value is 100%. Also, the “catalytic efficiency to topramezone versus wild type (in words)” value in [8] (statement on Table 11) is given as “obviously superior to that of OsHSL1 wild type”. For the same molecule, in series [7], the “Catalytic efficiency (%) Compound A” value is given as 0%, the “Catalytic efficiency (%) benzobicyclon technical” value was determined as 44%, the “Catalytic efficiency (%) Mesotrione” value is listed as 15% and the “Catalytic efficiency (%) methyl-benquitrione” value was 0%. Also, in series [7], the “Catalytic efficiency (%) pyraquinate technical” value is given as 24%, the “Catalytic efficiency (%) tefuryltrione” value is reported as 98% and the “Catalytic efficiency (%) tembotrione” value was found to be 62%.

B4: OsHSL1_L204F/F298L/I335F: SEQ ID NO.1 with L204 to phenylalanine, F298 to leucine, I335 to phenylalanine (protein, listed as Oryza sativa)
chain: B1 chain with L204F, F298L, I335F
For the molecule B4, the “Catalytic efficiency (%) topramezone” value in series [5] is listed as 1%. Moreover, in series [7], the “Catalytic efficiency (%) Compound A” value stood at 47%, the “Catalytic efficiency (%) benzobicyclon technical” value was found to be 100%, the “Catalytic efficiency (%) Mesotrione” value was 56% and the “Catalytic efficiency (%) methyl-benquitrione” value amounted to 35%. Also, in series [7], the “Catalytic efficiency (%) pyraquinate technical” value was determined as 52%, the “Catalytic efficiency (%) tefuryltrione” value is recorded as 94% and the “Catalytic efficiency (%) tembotrione” value was determined as 0%.

B5: OsHSL1_F140H/L204F/F298L/I335W: SEQ ID NO.1 with F140 to histidine, L204 to phenylalanine, F298 to leucine, I335 to tryptophan (protein)
chain: B1 chain with F140H, L204F, F298L, I335W
On to B5, for which the “Catalytic efficiency (%) topramezone” value in series [5] worked out at 0%. Moreover, in series [7], the “Catalytic efficiency (%) Compound A” value is listed as 98%, the “Catalytic efficiency (%) benzobicyclon technical” value amounted to 100%, the “Catalytic efficiency (%) Mesotrione” value is listed as 88% and the “Catalytic efficiency (%) methyl-benquitrione” value was determined as 90%. In series [7], the “Catalytic efficiency (%) pyraquinate technical” value was 17%, the “Catalytic efficiency (%) tefuryltrione” value was 70% and the “Catalytic efficiency (%) tembotrione” value was determined as 55%.

B6: OsHSL1_L204F/F298L/I335A: three-point mutant OsHSL1_L204F/F298L/I335A containing I335; not listed in Table 2 (protein)
chain: B1 chain with L204F, F298L, I335A
For the molecule B6, the “affinity and catalytic efficiency to pyraquinate technical versus wild types (in words)” value in series [8] (statement on Table 12) is “superior to that of OsHIS1 wild type and OsHSL1 wild type”.

B7: rice OsHIS1 wild type, SEQ ID NO: 2 (Oryza sativa Japonica Group) (protein)
chain: MADESWRAPAIVQELAAAGVEEPPSRYLLREKDRSDVKLVAAELPEPLPVVDLSRLDGAEEATKLRVALQNWGFFLLTNHGVEASLMDSVMNLSREFFNQPIERKQKFSNLIDGKNFQIQGYGTDRVVTQDQILDWSDRLHLRVEPKEEQDLAFWPDHPESFRDVLNKYASGTKRIRDDIIQAMAKLLELDEDYFLDRLNEAPAFARFNYYPPCPRPDLVFGIRPHSDGTLLTILLVDKDVSGLQVQRDGKWSNVEATPHTLLINLGDTMEVMCNGIFRSPVHRVVTNAEKERISLAMLYSVNDEKDIEPAAGLLDENRPARYRKVSVEEFRAGIFGKFSRGERYIDSLRI
notes: as for B1
On to B7, for which, in series [6], the Km was 5.5811 µM and the kcat came out at 0.05957 s⁻¹. In [9], the Michaelis constant (Km) came to 16.2456 µM and the kcat is 0.0106 s⁻¹.

The Km is the substrate concentration at which the rate is half of its maximum. Broadly, the kcat is the maximal rate divided by the concentration of active sites.
